In this assay the target is T1, IL-18 receptor (IL-18Rα/IL-18Rβ) overexpressed on HEK-Blue IL-18 cells (Homo sapiens (Human), UniProt Q13478 19-541; O95256 20-599).
T1 sequence 1: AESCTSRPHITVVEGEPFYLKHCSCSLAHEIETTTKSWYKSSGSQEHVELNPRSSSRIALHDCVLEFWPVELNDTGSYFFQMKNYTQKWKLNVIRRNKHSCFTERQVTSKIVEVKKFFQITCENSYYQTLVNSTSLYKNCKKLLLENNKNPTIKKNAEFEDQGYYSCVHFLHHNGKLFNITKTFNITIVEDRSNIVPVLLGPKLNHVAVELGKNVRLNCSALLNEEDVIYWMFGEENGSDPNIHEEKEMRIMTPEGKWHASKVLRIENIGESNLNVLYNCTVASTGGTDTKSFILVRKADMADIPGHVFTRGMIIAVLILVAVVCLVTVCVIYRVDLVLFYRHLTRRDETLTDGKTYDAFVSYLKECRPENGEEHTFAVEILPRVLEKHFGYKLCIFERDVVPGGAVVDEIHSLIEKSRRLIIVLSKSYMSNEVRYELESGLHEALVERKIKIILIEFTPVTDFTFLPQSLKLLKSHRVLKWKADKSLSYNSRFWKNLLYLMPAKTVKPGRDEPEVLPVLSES
T1 sequence 2: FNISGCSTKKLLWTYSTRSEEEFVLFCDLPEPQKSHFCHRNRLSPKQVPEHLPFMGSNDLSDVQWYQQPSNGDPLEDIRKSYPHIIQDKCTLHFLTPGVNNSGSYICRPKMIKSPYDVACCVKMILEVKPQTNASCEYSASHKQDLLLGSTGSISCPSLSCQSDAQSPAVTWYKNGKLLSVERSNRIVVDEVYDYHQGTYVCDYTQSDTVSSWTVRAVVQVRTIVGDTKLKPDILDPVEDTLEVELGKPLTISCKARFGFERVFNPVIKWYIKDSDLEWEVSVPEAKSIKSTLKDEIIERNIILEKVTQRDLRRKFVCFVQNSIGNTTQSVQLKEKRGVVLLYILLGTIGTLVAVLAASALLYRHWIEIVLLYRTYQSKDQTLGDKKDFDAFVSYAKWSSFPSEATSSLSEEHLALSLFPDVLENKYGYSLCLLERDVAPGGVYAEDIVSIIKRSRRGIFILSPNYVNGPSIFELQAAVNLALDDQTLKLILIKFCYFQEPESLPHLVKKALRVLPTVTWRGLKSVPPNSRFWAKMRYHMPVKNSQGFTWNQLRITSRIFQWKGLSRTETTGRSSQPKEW
The assay can be described thus: cell-based or functional assay.

B1: DGL310 (bispecific antibody, V domains shown)
V domain 1: QVQLVESGGGLVQAGGSLRLSCAASGRTFSKHAMGWFRQAPGKEREFVAAIDWSGGSTYYADSVKGRFTISRDNAKNTVYLQMDSLKPEDTAVYYCAADSYTDYAQLWLPELESEYDYWGQGTQVTVSS
V domain 2: EVQLVESGGGVAQAGGSLRLSCAASITSFSLNTMGYYRQLPGKQRELVAVESSSGITNYADSVKGRFTISRDGAKNTVFLQMNSLTPEDTAVYYCGGKLFGRDFWGQGTQVTVSS
B1: the “HEK-Blue IL-18: Abs 405” value was found to be 2.7 Abs and the “HEK-Blue IL-18: Fold over Background” value came to 11.8 fold.

B2: DGL311 (bispecific antibody, V domains shown)
V domain 1: QVQLVESGGGLVQAGGSLRLSCAASGRTFSSYTMGWFRQAPGKEREFVAAISWSAGRTYYADSVKGRFTISRDNAKNTVYLQMNSLKPEDTAVYFCAAEEAPDWAPIDCSGYGCLSLYDYWGQGTQVTVSS
V domain 2: B1 V domain 2
On to B2, for which the “HEK-Blue IL-18: Abs 405” value came to 0.79 Abs and the “HEK-Blue IL-18: Fold over Background” value was found to be 3.4 fold.

B3: DGL316 (bispecific antibody, V domains shown)
V domain 1: B1 V domain 1
V domain 2: QVQLVESGGGLVQAGGSLRLSCAASGMFFSIGEMGWYRQAPGKQREMVARITRDGRINYADSVEGRFTASRNVAKTTLFLQMNSLKPEDTANYQCTVRRWDEEYWGKGTLVTVSD
Consider B3, for which the “HEK-Blue IL-18: Abs 405” value was 0.58 Abs and the “HEK-Blue IL-18: Fold over Background” value stood at 2.5 fold.

B4: DGL313 (bispecific antibody, V domains shown)
V domain 1: EVQLVESGGGLVQPGGSLRLSCAASGSIFSINAMGWYRQAPGKQREVVATSTGGGMTNYADSVKGRFTISRDNAKNTVYLQMNSLKPEDTAVYYCNADKDPFFPGDYWGQGTQVTVSS
V domain 2: B3 V domain 2
In the case of B4, the “HEK-Blue IL-18: Abs 405” value turned out to be 0.62 Abs and the “HEK-Blue IL-18: Fold over Background” value came out at 2.7 fold.

B5: DGL317 (bispecific antibody, V domains shown)
V domain 1: QVQLQESGGGLVQPGGSLRLSCAASGFIFSNWYMRWVRQAPGEGLEWVSSINSGGDDTDYADSVKGRFTISRDNAKGTLYLQMHSLKPEDTALYYCERGADRVRGQGTQVTVSS
V domain 2: B3 V domain 2
As to B5, the “HEK-Blue IL-18: Abs 405” value was 0.99 Abs and the “HEK-Blue IL-18: Fold over Background” value came to 4.3 fold.

B6: DGL319 (bispecific antibody, V domains shown)
V domain 1: B4 V domain 1
V domain 2: QLQLVESGGGLVQAGGSLRLSCAASRSITFSHNVMGWYRQAPGKQRELVASIGSGGSTNYVDSVKGRATISRDNAKKTVYLQMNSLKPEDTAVYYCGVVVGVYRGSLGQGTQVTVSS
On to B6, for which the “HEK-Blue IL-18: Abs 405” value is 2.88 Abs and the “HEK-Blue IL-18: Fold over Background” value stood at 12.5 fold.

B7: DGL314 (bispecific antibody, V domains shown)
V domain 1: QVQLQESGGGLVQPGGSLRLSCAASGSIFSTKGLGWYRQAPGEQRELVAGISSAGWIFYTQSVKGRFTMSRDNAKNTVYLQMNSLKPEDTAVYYCNSAQSGVPLRSWGQGTQVTVAS
V domain 2: B3 V domain 2
With B7, the “HEK-Blue IL-18: Abs 405” value came out at 0.83 Abs and the “HEK-Blue IL-18: Fold over Background” value was 3.6 fold.

B8: DGL304 (bispecific antibody, V domains shown)
V domain 1: QVQLVESGGGLVQAGGSLRLSCAASGRTFSSYDMGWFRQAPGKEREFVAALRWSGGSTSYADSVKGRFTISRDNAKNTVYLHMNSLKPEDTAVYYCAATLETDSGTYWADYWGQGTQVTVSS
V domain 2: QVQLQESGGGLVQPGGSLGLSCAASGIKISVNSMAWYRQAPGERREMVAVISSGGSAVYADSVKGRFTISRDNAKNMVYLQMNSLKPEDTAVYYCHPGSAAYRDYWGQGTQVTVSS
Turning to B8, the “HEK-Blue IL-18: Abs 405” value was determined as 1.32 Abs and the “HEK-Blue IL-18: Fold over Background” value came to 5.7 fold.

B9: DGL306 (bispecific antibody, V domains shown)
V domain 1: B1 V domain 1
V domain 2: B8 V domain 2
On to B9, for which the “HEK-Blue IL-18: Abs 405” value stood at 1.41 Abs and the “HEK-Blue IL-18: Fold over Background” value is 6.2 fold.

B10: DGL305 (bispecific antibody, V domains shown)
V domain 1: B4 V domain 1
V domain 2: B8 V domain 2
As to B10, the “HEK-Blue IL-18: Abs 405” value turned out to be 0.25 Abs and the “HEK-Blue IL-18: Fold over Background” value turned out to be 1.1 fold.

B11: DGL307 (bispecific antibody, V domains shown)
V domain 1: B2 V domain 1
V domain 2: B8 V domain 2
Turning to B11, the “HEK-Blue IL-18: Abs 405” value was determined as 0.35 Abs and the “HEK-Blue IL-18: Fold over Background” value is 1.5 fold.

B12: DGL318 (bispecific antibody, V domains shown)
V domain 1: B8 V domain 1
V domain 2: B6 V domain 2
In the case of B12, the “HEK-Blue IL-18: Abs 405” value was 2.23 Abs and the “HEK-Blue IL-18: Fold over Background” value was 9.7 fold.

B13: DGL308 (bispecific antibody, V domains shown)
V domain 1: B8 V domain 1
V domain 2: B1 V domain 2
Turning to B13, the “HEK-Blue IL-18: Abs 405” value is 1.48 Abs and the “HEK-Blue IL-18: Fold over Background” value was 6.4 fold.

B14: DGL312 (bispecific antibody, V domains shown)
V domain 1: B8 V domain 1
V domain 2: B3 V domain 2
For the molecule B14, the “HEK-Blue IL-18: Abs 405” value was 0.63 Abs and the “HEK-Blue IL-18: Fold over Background” value amounted to 2.7 fold.

B15: DGL301 (bispecific antibody, V domains shown)
V domain 1: QVQLQESGGGLVQPGGSARLSCVASGIIFNDYHMGWYRQAPGKQRDLVAGITAGGSTTYADSVKGRFTISRDNAKHTVYLQMNNLSPEDTAVYYCNTFYNAILDWGKGTLVTVSS
V domain 2: QVQLVESGGGLVLPGESLRLSCVVSGTIDNINSMGWYRQAPGKQRELVAYITKLGSANYADSVEGRFTISRDNAKKTVHLQMNSLKPEDTAVYYCHANERGRITWAQGTQVTVSS
Consider B15, for which the “HEK-Blue IL-18: Abs 405” value came to 0.66 Abs and the “HEK-Blue IL-18: Fold over Background” value worked out at 2.9 fold.

B16: DGL315 (bispecific antibody, V domains shown)
V domain 1: B15 V domain 1
V domain 2: B3 V domain 2
Turning to B16, the “HEK-Blue IL-18: Abs 405” value came to 0.58 Abs and the “HEK-Blue IL-18: Fold over Background” value stood at 2.5 fold.

B17: DGL309 (bispecific antibody, V domains shown)
V domain 1: B15 V domain 1
V domain 2: B1 V domain 2
Turning to B17, the “HEK-Blue IL-18: Abs 405” value is 0.23 Abs and the “HEK-Blue IL-18: Fold over Background” value was 1 fold.

B18: DGL302 (bispecific antibody, V domains shown)
V domain 1: B1 V domain 1
V domain 2: B15 V domain 2
In the case of B18, the “HEK-Blue IL-18: Abs 405” value came to 1.18 Abs and the “HEK-Blue IL-18: Fold over Background” value was found to be 5.2 fold.

B19: DGL303 (bispecific antibody, V domains shown)
V domain 1: B5 V domain 1
V domain 2: B15 V domain 2
With B19, the “HEK-Blue IL-18: Abs 405” value is 1.02 Abs and the “HEK-Blue IL-18: Fold over Background” value was found to be 4.4 fold.

Values taken from patent US20240209100A1 (DIAGONAL THERAPEUTICS, published 2024).
